In patent US20030180295A1 (PHILADELPHIA HEALTH AND EDUCATION, published 2003):

Molecular target: T1, Thrombospondin (TSP-1) (UniProt P07996 19-1170, biotinylated in the ligand blot of Example 5)
T1 construct: also called thrombospondin-1; biotinylated TSP-1
Assay: resonant mirror biosensor, peptide alone on immobilized TSP-1

T1 sequence (P07996 19-1170 limits assumed): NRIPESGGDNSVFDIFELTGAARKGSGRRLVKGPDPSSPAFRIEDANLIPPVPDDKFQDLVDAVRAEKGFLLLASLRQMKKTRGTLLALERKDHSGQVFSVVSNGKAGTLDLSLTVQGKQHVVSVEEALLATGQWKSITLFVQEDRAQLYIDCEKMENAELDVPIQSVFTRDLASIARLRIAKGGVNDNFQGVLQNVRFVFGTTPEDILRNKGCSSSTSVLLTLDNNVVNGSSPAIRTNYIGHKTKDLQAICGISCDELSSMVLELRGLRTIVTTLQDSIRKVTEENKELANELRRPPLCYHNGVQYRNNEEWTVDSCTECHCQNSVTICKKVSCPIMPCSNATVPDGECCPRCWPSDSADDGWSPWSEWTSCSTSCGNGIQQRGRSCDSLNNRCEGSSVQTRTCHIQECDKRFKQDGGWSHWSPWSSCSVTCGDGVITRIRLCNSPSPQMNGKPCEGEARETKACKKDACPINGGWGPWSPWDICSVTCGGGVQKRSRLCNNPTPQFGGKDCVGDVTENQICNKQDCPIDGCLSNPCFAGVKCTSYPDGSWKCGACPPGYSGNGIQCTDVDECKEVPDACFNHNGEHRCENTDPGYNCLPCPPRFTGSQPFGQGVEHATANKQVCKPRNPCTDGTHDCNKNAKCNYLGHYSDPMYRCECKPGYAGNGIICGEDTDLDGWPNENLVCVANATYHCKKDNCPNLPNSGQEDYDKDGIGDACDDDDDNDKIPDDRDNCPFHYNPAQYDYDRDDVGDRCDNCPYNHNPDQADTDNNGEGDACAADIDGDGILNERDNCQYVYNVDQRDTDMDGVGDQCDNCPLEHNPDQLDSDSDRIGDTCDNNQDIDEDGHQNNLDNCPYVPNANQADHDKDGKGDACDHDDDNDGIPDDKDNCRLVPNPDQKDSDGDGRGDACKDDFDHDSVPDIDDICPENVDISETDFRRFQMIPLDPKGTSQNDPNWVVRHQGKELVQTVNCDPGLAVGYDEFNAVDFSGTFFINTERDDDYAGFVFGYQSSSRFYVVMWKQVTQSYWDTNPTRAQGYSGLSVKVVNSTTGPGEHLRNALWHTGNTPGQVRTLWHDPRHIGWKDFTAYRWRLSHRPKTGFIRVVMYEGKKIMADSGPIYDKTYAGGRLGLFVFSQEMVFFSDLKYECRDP

B1: Pro-His-Ser-Arg-Asn (SEQ ID NO: 10) (peptide)
peptide: PHSRN
notes: also called random negative control peptide; control peptide
B1: no binding.
